Test results taken from patent US20140113854.

Human α-thrombin
cleavage of the peptide by thrombin, HPLC of the intact peptide, 75 µM peptide, 23 nM thrombin, 37 °C (BRI-T218): completely converted to the cleavage products within two hours under the specific experimental conditions
cleavage of the peptide by thrombin, HPLC of the intact peptide, 75 µM peptide, 23 nM thrombin, 37 °C (BRI-T208): BRI-T208 is significantly more resisitent to thrombin cleavage than BRI-T218
